From article PMC8741645 (Structure (London, England : 1993), 2021)

Biological target: the molecule itself
Test: cryo-EM structure

B1: Saccharomyces cerevisiae vacuolar transient receptor potential yeast 1 (TRPY1) channel, full length, wild type (natural protein, UniProt Q12324 1-675, looked up)
chain: MVSANGDLHLPISNEQCMPENNGSLGFEAPTPRQILRVTLNLKYLIDKVVPIVYDPNDIVCDHSEILSPKVVKLAYEACGGNPKDKANKRKYQSVIIFSLLKVCEWYSILATMEVHNAKLYETRNLASQQLCKLLIEREETRDLQFLFMQLLLRRYVINENDEDQEPLNALELATDMHCTTVIGSSGFQRCLKWIWRGWIVQNGLDPTTFIKDDSLAEVSLISHFNPVRLKAPVYQNYLQMIFSFLFLGLYTLVVNGKDSERVQSFDLLESIFYVFNTGFILDELTKLYYIGYAHLSFWNLFNDTTYLIITFAMGFRAMSVTPLNAKYSSEDWDKISYRVLSCAAPFVWSRLLLYLESQRFIGIMLVILKHMMKESIVFFFLLFLIMIGFTQGFLGLDSADGKRDITGPILGNLTITVLGLGSFDVFEEFAPPYAAILYYGYYFIVSVILLNILIALYSTAYQKVIDNADDEYMALMSQKTLRYIRAPDEDVYVSPLNLIEVFMTPIFRILPPKRAKDLSYTVMTIVYSPFLLLISVKETREARRIKYNRMKRLNDDANEYDTPWDLTDGYLDDDDGLFSDNRNSGMRATQLKNSRSLKLQRTAEQEDVHFKVPKKWYKNVKKCSPSFEQYDNDDTEDDAGEDKDEVKELTKKVENLTAVITDLLEKLDIKDKKE
  stoichiometry N: 4
